Experimental findings from article PMC13132431, “Epigenetic gene regulation is controlled by distinct regulatory complexes utilizing specialized paralogs of TELOMERE REPEAT BINDING FACTORS” are described below.

A word on the Kd: it is a measure of binding affinity in units of concentration.

Data set [1] has as its target T1, HIS-TRB3 (Arabidopsis thaliana, UniProt Q9M2X3 1-295).
T1 sequence: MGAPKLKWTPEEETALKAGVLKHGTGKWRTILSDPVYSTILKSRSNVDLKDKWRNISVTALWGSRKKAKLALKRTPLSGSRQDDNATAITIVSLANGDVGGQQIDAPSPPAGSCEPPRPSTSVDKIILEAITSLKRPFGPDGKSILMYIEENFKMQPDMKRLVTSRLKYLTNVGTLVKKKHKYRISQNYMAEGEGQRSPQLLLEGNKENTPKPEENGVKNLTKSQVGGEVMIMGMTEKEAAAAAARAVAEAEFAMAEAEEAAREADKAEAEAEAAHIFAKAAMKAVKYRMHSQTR
Briefly: MST; MST: 50 mM NaPO4, 300 mM NaCl, pH 7.5, 0.05% Tween 20, 1.25 mg/ml BSA; 20 nM Cy3-dsDNA, 260 pM-8.5 uM protein; 10 min at RT. The settings on record: protein: recombinant; tags: 6xHis (pET-28b); label: 5'-Cy3 on both strands; blunt.

Data set [2] has as its target T2, HIS-TRB1 (Arabidopsis thaliana, UniProt Q8VWK4 1-300).
T2 sequence: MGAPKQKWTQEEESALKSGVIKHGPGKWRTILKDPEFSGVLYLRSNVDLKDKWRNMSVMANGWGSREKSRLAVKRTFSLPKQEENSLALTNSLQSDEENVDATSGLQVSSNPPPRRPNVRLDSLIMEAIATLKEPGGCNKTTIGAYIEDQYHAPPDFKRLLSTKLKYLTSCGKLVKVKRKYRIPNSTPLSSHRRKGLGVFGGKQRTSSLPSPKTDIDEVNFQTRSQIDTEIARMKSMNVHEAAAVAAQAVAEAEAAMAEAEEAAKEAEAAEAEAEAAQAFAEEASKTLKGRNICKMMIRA
The data set is described as above. Particulars: protein: recombinant; tags: 6xHis (pET-28b); label: 5'-Cy3 on both strands; blunt.

B1: proSEP3-telo-box (dsDNA)
DNA 1: TTTAAATGTTAGGGTTTTTTGTAGGATT
DNA 2: AATCCTACAAAAAACCCTAACATTTAAA
Turning to B1, in data set [1], the equilibrium dissociation constant (Kd) came to 640 ± 19 nM. In data set [2], the binding result is given as “no binding”.

B2: (C)GACCTAA (dsDNA)
DNA 1: CATCATGGCGACCTAAGGCTGGTACTAG
DNA 2: CTAGTACCAGCCTTAGGTCGCCATGATG
For the molecule B2, the dissociation constant Kd in data set [1] was 652 ± 64 nM. In addition, the binding result in data set [2] is “no binding”.

B3: R4 telo-box (4x repeat) (dsDNA)
DNA 1: GGTTTAGGGTTTAGGGTTTAGGGTTTAG
DNA 2: CTAAACCCTAAACCCTAAACCCTAAACC
Regarding B3, the results for the Kd in data set [1] and in data set [2] were 531 ± 30 nM and 567 ± 180 nM, respectively.

B4: (C)AACCTAA (dsDNA)
DNA 1: CATCATGGCAACCTAAGGCTGGTACTAG
DNA 2: CTAGTACCAGCCTTAGGTTGCCATGATG
B4: the Kd worked out at 298 ± 48 nM in data set [1] and 4900 ± 1000 nM in data set [2].
